Reference: patent US20240092867A1 (UNIVERSITY OF CHICAGO, published 2024)

T1: placental growth factor (PlGF)-2 (human, UniProt P49763-3 19-170)
T1 construct: mature; Purchased in mature form
T1 sequence (looked up): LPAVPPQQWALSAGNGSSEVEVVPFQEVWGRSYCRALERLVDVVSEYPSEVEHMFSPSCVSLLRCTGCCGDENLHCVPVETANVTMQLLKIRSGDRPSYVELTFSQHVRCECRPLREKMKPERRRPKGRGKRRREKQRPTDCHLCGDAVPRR


Columns and labels:
[1] = biological target: T2, laminin-111 (human, UniProt P25391 18-3075; P07942 22-1786; P11047 34-1609); assay: ELISA, GF coated, laminin 10 nM
T2 construct: Full-length recombinant human laminin isoform (BioLamina); Chain composition is read from the isoform name
Protocol: (§1) ELISA tests were performed as previously reported. In brief, ELISA plates (med-binding, Greiner Bio-One) were coated with 50 nM GFs at 37° C. for more than 2 hrs. […] Bound laminin was detected with rabbit anti-human laminin γ1 chain antibody (1:1000 dilution, Assay biotech) or rabbit anti-human laminin α3 chain antibody (1:1000 dilution, Assay biotech). After incubation with biotinylated anti-rabbit antibody for 60 min at room temperature (RT), HRP conjugated streptavidin (Jackson ImmunoResearch) was added. After 60 min of incubation at RT, 50 μL TMB substrate (Sigma-Aldrich) was added. The reactions were stopped by adding 25 μL of 2 N H₂SO₄. Subsequently, the absorbance at 450 nm was measured with a reference of 570 nm.

[2] = biological target: T3, laminin-211 (human, UniProt P24043 23-3122; P07942 22-1786; P11047 34-1609); assay: ELISA, GF coated, laminin 10 nM
T3 construct: Full-length recombinant human laminin isoform (BioLamina); chains read from the isoform name
Protocol: as §1

[3] = biological target: T4, laminin-411 (human, UniProt Q16363 25-1823; P07942 22-1786; P11047 34-1609); assay: ELISA, GF coated, laminin 10 nM
T4 construct: Full-length recombinant human laminin isoform (BioLamina); chains read from the isoform name
Protocol: as §1

[4] = biological target: T5, laminin-421 (human, UniProt Q16363 25-1823; P55268 33-1798; P11047 34-1609); assay: ELISA, GF coated, laminin 10 nM
T5 construct: Full-length recombinant human laminin isoform (BioLamina); chains read from the isoform name
Protocol: as §1

[5] = biological target: T6, laminin-511 (human, UniProt O15230 36-3695; P07942 22-1786; P11047 34-1609); assay: ELISA, GF coated, laminin 10 nM
T6 construct: Full-length recombinant human laminin isoform (BioLamina); chains read from the isoform name
Protocol: as §1

[6] = biological target: T7, laminin-521 (human, UniProt O15230 36-3695; P55268 33-1798; P11047 34-1609); assay: ELISA, GF coated, laminin 10 nM
T7 construct: Full-length recombinant human laminin isoform (BioLamina); chains read from the isoform name
Protocol: as §1

[7] = biological target: T8, fibroblast growth factor (FGF)-2 (human, UniProt P09038 143-288); assay: ELISA; peptide coated at 10 µg/mL, 1 µg/mL FGF-2 in solution, bound GF detected with antibody [panel FGF-2]
T8 construct: mature; Purchased in mature form
Protocol: (§2) FIG. 9. […] Affinity of GFs against chemically synthesized peptides that are scrambled (Scr) the sequence of α3₃₀₄₃₋₃₀₆₂. ELISA plates were coated with 10 μg/mL laminin peptide and further incubated with VEGF-A165, PlGF-2, PDGF-BB, or FGF-2. Concentrations were 1 μg/mL for GFs. Bound GF was detected with a specific antibody for each GF (n=4, mean±SEM). Statistical analyses were done using one-way ANOVA. *p<0.05, **p<0.01. Sequence of the peptides are described in Table 2.
(§3) ELISA tests were performed as described above. […] 1 μg/mL of BSA served as non-binding protein control. After blocking with 2% BSA PBS-0.05% Tween 20 (PBS-T) solution, 1 μg/mL of the recombinant human proteins (VEGF-A121, VEGF-A165, PlGF-1, PlGF-2, PDGF-BB or FGF-2) or 10 μg/mL of biotinylated heparin (Sigma-Aldrich) were added. Bound GF was detected with biotinylated antibodies for human VEGF, PlGF, PDGF-BB, or FGF-2 (R&D Systems). The antibodies were detected by streptavidin-HRP (R&D Systems).

[8] = biological target: T1, placental growth factor (PlGF)-2; assay: ELISA; peptide coated at 10 µg/mL, 1 µg/mL PlGF-2 in solution, bound GF detected with antibody [panel PlGF-2]
Protocol: as §2, §3

[9] = biological target: T9, platelet-derived growth factor (PDGF)-BB (human, UniProt P01127 82-190); assay: ELISA; peptide coated at 10 µg/mL, 1 µg/mL PDGF-BB in solution, bound GF detected with antibody [panel PDGF-BB]
T9 construct: mature; Purchased in mature form
Protocol: as §2, §3

[10] = biological target: T10, vascular endothelial growth factor (VEGF)-A165 (human, UniProt P15692-4 27-191); assay: ELISA; peptide coated at 10 µg/mL, 1 µg/mL VEGF-A165 in solution, bound GF detected with antibody [panel VEGF-A165]
T10 construct: mature; Purchased in mature form, not glycosylated
Protocol: as §2, §3

[11] = biological target: T11, human plasma-derived vWF (human, UniProt P04275 764-2813); assay: ELISA, GF coated 50 nM, vWF 1 µg/mL
T11 construct: mature; also called plasma-derived purified vWF; von Willebrand factor
Protocol: ELISA tests were performed as previously reported1. In brief, ELISA plates (med-binding, Greiner Bio-One) were coated with 50 nM GFs at 37° C. for 2 hrs. […] Then, HRP conjugated goat anti-rabbit antibody (Jackson ImmunoResearch) was added. After 60 min of incubation, 50 μL TMB substrate (Sigma-Aldrich) was added. The reaction was stopped by adding 25 μL of 2N H2SO4. Subsequently, the absorbance at 450 nm was measured and subtracted the absorbance at 570 nm.

T4 sequence (Q16363 25-1823 limits assumed, chain 1 of 3): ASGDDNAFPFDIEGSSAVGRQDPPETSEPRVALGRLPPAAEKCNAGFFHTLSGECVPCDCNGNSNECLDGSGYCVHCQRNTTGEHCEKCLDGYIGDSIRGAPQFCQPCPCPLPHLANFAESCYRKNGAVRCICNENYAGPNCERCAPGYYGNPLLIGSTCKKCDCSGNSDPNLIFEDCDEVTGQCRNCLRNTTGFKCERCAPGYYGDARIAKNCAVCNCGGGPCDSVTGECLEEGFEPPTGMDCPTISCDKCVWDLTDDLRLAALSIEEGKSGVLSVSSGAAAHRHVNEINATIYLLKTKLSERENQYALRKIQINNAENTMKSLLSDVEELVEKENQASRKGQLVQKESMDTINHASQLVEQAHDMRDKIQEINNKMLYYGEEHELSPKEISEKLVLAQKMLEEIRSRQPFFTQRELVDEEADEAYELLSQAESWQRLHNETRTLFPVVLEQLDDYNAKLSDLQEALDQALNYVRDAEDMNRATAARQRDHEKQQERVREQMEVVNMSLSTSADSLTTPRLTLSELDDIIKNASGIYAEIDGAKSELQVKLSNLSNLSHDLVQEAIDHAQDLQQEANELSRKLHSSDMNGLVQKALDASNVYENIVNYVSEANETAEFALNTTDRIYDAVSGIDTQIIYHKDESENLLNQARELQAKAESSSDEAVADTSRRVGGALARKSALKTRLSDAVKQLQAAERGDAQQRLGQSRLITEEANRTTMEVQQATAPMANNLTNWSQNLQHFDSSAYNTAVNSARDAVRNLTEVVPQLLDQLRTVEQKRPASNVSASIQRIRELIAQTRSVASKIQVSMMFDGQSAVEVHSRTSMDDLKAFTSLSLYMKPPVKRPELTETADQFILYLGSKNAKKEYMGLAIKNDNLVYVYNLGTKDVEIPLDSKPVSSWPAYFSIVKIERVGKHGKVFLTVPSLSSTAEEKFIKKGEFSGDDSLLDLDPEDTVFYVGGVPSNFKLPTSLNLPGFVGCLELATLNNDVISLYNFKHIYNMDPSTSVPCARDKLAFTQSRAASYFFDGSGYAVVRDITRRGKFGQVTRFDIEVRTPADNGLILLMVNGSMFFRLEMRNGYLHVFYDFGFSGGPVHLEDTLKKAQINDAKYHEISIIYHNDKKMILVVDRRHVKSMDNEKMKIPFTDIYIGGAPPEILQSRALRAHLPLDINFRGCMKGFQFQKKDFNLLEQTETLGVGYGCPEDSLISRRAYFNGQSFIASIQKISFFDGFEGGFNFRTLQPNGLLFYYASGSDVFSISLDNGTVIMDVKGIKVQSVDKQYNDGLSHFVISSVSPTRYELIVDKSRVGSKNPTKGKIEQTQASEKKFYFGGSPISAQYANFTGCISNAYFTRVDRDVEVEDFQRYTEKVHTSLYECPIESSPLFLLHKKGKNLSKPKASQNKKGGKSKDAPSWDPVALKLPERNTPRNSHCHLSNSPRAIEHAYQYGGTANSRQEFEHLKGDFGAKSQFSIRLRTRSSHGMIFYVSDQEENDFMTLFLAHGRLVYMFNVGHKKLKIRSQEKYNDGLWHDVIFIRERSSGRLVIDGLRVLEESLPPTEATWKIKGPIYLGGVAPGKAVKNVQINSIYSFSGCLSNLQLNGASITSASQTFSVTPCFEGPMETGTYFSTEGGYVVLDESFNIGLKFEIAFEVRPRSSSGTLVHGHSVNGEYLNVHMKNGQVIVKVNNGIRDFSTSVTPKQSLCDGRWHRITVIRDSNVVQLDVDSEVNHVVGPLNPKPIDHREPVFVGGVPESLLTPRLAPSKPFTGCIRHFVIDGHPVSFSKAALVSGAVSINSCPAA
T4 sequence (P07942 22-1786 limits assumed, chain 2 of 3): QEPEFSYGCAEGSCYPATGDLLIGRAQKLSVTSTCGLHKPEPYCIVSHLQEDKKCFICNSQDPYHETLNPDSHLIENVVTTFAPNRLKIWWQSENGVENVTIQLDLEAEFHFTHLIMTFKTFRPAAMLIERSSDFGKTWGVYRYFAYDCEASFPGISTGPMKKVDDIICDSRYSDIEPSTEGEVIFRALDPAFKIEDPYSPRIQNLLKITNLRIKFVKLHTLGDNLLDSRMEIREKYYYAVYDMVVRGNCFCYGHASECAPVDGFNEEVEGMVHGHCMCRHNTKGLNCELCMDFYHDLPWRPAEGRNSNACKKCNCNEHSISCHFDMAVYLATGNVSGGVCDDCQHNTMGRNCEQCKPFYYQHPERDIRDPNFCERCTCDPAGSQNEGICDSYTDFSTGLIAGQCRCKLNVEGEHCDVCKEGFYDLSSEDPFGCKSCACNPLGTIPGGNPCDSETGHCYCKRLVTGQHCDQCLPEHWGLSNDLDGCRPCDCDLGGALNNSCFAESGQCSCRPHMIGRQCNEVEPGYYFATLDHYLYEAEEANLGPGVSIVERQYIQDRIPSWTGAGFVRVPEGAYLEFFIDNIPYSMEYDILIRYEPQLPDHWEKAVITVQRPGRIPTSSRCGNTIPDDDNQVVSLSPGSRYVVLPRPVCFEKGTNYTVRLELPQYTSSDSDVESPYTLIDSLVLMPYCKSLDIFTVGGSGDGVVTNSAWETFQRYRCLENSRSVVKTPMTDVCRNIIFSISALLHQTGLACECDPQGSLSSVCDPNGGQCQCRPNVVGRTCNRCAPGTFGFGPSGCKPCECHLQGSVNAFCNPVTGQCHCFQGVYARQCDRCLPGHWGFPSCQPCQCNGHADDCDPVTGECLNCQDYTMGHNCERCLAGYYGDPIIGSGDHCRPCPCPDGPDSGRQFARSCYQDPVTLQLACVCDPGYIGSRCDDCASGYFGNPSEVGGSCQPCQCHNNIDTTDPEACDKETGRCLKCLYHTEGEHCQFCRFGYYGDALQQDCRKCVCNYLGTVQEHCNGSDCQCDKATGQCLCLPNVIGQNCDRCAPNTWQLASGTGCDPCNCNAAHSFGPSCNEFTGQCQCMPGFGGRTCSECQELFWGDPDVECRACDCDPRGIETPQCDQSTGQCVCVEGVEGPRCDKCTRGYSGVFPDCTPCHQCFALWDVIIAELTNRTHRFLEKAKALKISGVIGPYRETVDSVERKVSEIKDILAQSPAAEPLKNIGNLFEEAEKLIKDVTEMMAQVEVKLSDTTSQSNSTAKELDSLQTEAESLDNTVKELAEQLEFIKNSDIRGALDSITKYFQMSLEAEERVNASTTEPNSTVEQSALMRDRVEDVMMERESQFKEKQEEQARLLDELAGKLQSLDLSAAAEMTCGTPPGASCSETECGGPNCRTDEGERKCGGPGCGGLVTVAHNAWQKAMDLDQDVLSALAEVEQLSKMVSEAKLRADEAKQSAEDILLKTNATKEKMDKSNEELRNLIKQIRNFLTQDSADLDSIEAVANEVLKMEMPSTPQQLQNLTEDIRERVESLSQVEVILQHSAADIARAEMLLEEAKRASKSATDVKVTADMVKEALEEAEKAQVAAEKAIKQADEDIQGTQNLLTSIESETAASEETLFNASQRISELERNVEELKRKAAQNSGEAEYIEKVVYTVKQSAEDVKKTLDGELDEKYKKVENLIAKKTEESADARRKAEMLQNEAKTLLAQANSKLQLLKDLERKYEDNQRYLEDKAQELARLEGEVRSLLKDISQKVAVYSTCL
T4 sequence (P11047 34-1609 limits assumed, chain 3 of 3): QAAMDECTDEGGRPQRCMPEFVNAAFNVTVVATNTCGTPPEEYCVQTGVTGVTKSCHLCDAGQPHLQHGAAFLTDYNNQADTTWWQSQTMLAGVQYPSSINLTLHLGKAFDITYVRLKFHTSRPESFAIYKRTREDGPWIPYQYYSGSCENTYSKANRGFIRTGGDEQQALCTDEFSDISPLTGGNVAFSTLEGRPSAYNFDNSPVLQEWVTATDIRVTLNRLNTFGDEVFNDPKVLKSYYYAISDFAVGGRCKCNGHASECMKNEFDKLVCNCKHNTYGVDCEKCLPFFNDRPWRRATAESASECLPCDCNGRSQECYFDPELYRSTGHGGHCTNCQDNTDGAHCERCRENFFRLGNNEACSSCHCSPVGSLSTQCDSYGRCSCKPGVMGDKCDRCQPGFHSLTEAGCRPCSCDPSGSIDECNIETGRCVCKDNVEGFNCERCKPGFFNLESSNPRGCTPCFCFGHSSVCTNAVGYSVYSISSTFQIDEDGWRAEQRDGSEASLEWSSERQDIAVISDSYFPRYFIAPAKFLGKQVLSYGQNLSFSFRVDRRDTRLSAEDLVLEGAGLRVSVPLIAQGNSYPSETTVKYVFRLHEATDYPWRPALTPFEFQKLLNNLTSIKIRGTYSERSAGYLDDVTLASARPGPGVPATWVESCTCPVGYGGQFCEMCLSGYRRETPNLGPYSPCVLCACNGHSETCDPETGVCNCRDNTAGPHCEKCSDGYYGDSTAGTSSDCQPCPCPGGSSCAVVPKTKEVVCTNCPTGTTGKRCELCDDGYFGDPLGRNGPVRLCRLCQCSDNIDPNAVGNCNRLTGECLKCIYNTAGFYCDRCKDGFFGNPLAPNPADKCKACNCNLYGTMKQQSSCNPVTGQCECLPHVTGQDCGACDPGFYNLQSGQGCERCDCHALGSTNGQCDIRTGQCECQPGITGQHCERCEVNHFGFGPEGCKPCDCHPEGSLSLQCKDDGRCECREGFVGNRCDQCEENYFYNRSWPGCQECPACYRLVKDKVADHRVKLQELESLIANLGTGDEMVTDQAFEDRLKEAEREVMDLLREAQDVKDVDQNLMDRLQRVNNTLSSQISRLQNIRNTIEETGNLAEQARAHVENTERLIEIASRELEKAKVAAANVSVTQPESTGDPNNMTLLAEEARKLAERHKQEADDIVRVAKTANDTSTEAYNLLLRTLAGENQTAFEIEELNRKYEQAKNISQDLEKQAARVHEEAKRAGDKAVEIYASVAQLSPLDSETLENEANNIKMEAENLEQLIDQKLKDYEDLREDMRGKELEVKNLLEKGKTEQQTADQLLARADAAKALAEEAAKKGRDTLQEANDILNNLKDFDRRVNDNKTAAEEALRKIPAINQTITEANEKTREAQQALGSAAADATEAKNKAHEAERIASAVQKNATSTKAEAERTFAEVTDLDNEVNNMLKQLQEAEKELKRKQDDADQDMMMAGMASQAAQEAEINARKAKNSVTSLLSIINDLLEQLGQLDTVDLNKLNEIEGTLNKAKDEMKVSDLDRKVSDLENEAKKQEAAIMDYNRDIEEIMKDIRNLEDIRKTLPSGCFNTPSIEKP

Binder | binding result [1] | binding result [2] | binding result [3] | binding result [4] | binding result [5] | binding result [6] | binding result [7] | binding result [8] | binding result [9] | binding result [10] | binding result [11]
brain-derived neurotrophic factor (BDNF) (ligand, UniProt P23560 129-247, looked up, mature; Purchased in mature form) HSDPARRGELSVCDSISEWVTAADKKTAVDMSGGTVTVLEKVPVSKGQLKQYFYETKCNPMGYTKEGCRGIDKRHWNSQCRTTQSYVRALTMDSKKRIGWRFIRIDTSCVCTLTIKRGR | binds | binds | binds | binds | binds | binds |  |  |  |  | 
ALLLGIGRDFNKKKRKKKSEVTDGC (Scrambled peptide) [α3 3043-3067 Scr6] |  |  |  |  |  |  | binds | binds | binds | binds | 
C-X-C motif ligand (CXCL)-11 (ligand, UniProt O14625 22-94, looked up, mature; Purchased in mature form) FPMFKRGRCLCIGPGVKAVKVADIEKASIMYPSNNCDKIEVIITLKENKGQRCLNPKSKQARLIIKKVERKNF | no binding (tested: A450 0.1) | no binding (tested: A450 0.1) | no binding (tested: A450 0.1) | no binding (tested: A450 0.1) | no binding (tested: A450 0.1) | no binding (tested: A450 0.1) |  |  |  |  | binds
bone morphogenetic protein (BMP)-3 (ligand, UniProt P12645 363-472, looked up, mature; Purchased in mature form) QWIEPRNCARRYLKVDFADIGWSEWIISPKSFDAYYCSGACQFPMPKSLKPSNHATIQSIVRAVGVVPGIPEPCCVPEKMSSLSILFFDENKNVVLKVYPNMTVESCACR | binds | binds | binds | binds | binds | binds |  |  |  |  | 
fibroblast growth factor (FGF)-18 (ligand, UniProt O76093 28-207, looked up, mature; Purchased in mature form) EENVDFRIHVENQTRARDDVSRKQLRLYQLYSRTSGKHIQVLGRRISARGEDGDKYAQLLVETDTFGSQVRIKGKETEFYLCMNRKGKLVGKPDGTSKECVFIEKVLENNYTALMSAKYSGWYVGFTKKGRPRKGPKTRENQQDVHFMKRYPKGQPELQKPFKYTTVTKRSRRIRPTHPA | binds | binds | binds | binds | binds | binds |  |  |  |  | binds
RLVKALKTDKFLGRIGSEKCNDKGK (Scrambled peptide) [α3 3043-3067 Scr1] |  |  |  |  |  |  | binds | binds | binds | binds | 
epidermal growth factor (EGF) (ligand, UniProt P01133 971-1023, looked up, mature; Purchased in mature form) NSDSECPLSHDGYCLHDGVCMYIEALDKYACNCVVGYIGERCQYRDLKWWELR |  |  |  |  |  |  |  |  |  |  | no binding
fibroblast growth factor (FGF)-7 (ligand, UniProt P21781 32-194, looked up, mature; Purchased in mature form) CNDMTPEQMATNVNCSSPERHTRSYDYMEGGDIRVRRLFCRTQWYLRIDKRGKVKGTQEMKNNYNIMEIRTVAVGIVAIKGVESEFYLAMNKEGKLYAKKECNEDCNFKELILENHYNTYASAKWTHNGGEMFVALNQKGIPVRGKKTKKEQKTAHFLPMAIT | binds | binds | binds | binds | binds | binds |  |  |  |  | binds
neurotrophin (NT)-3 (ligand, UniProt P20783 139-257, looked up, mature; Purchased in mature form) YAEHKSHRGEYSVCDSESLWVTDKSSAIDIRGHQVTVLGEIKTGNSPVKQYFYETRCKEARPVKNGCRGIDDKHWNSQCKTSQTYVRALTSENNKLVGWRWIRIDTSCVCALSRKIGRT | binds | binds | binds | binds | binds | binds |  |  |  |  | binds
bone morphogenetic protein (BMP)-2 (ligand, UniProt P12643 283-396, looked up, mature) QAKHKQRKRLKSSCKRHPLYVDFSDVGWNDWIVAPPGYHAFYCHGECPFPLADHLNSTNHAIVQTLVNSVNSKIPKACCVPTELSAISMLYLDENEKVVLKNYQDMVVEGCGCR | binds | binds | binds | binds | binds | binds |  |  |  |  | binds
CRKKKRKKKALLLGIGDFNSEVTDG (Scrambled peptide) [α3 3043-3067 Scr3] |  |  |  |  |  |  | binds | binds | binds | binds | 
fibroblast growth factor (FGF)-10 (ligand, UniProt O15520 38-208, looked up, mature; Purchased in mature form) QALGQDMVSPEATNSSSSSFSSPSSAGRHVRSYNHLQGDVRWRKLFSFTKYFLKIEKNGKVSGTKKENCPYSILEITSVEIGVVAVKAINSNYYLAMNKKGKLYGSKEFNNDCKLKERIEENGYNTYASFNWQHNGRQMYVALNGKGAPRRGQKTRRKNTSAHFLPMVVHS | binds | binds | binds | binds | binds | binds |  |  |  |  | 
KKRKLVALTDFLGICGSENDGRKKK (Scrambled peptide) [α3 3043-3067 Scr4] |  |  |  |  |  |  | binds | binds | binds | binds | 
TGF-β3 (ligand, UniProt P10600 301-412, looked up, mature; Purchased in mature form) ALDTNYCFRNLEENCCVRPLYIDFRQDLGWKWVHEPKGYYANFCSGPCPYLRSADTTHSTVLGLYNTLNPEASASPCCVPQDLEPLTILYYVGRTPKVEQLSNMVVKSCKCS |  |  |  |  |  |  |  |  |  |  | no binding
RKTDALELVFLKKGGIGSKKCNDKR (Scrambled peptide) [α3 3043-3067 Scr2] |  |  |  |  |  |  | binds | binds | binds | binds | 
LVRAKLTDKFLGKRIGSKECNKDKG (Scrambled peptide) [α3 3043-3067 Scr5] |  |  |  |  |  |  | binds | binds | binds | binds | 
